Experimental data taken from doi:10.1101/2025.03.04.641395.

Legend:
[1] = molecular target: ForJ (Streptomyces formicae); test: mass photometry
[2] = molecular target: ForJ (Streptomyces formicae); test: mass photometry; remark: listed apart in the source
[3] = molecular target: ForJ (Streptomyces formicae); test: non-reducing SDS-PAGE
[4] = molecular target: ForJ (Streptomyces formicae); test: non-reducing SDS-PAGE; remark: listed apart in the source

stoichiometry N [1]: 2
stoichiometry N [2]: 4
stoichiometry N [3]: 2
stoichiometry N [4]: 4
Substance: ForJ (natural protein)
